# Test system: Escherichia coli TOP10
# Experiment: shrunken log2 fold change of peptide-encoding DNA abundance (4.5 h post-induction vs induction); higher = less antimicrobial activity (less host growth inhibition)
# Conditions: time post-induction: 4.5 h; library: site-saturation at positions 5, 18, 19, 20
# 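Also: peptides expressed intracellularly from a pBAD plasmid library in pooled LB shake-flask culture, induced with 0.3% L-arabinose, DNA abundance read by NGS, three biological replicates, DESeq2 with apeglm shrinkage.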
row,Sequence,shrunken log2 fold change
1,RRIRFRPPRLPRPRPRPCEIPRP,-0.348
2,RRIRCRPPRLPRPRPRPIMHPRP,-0.135
3,RRIRTRPPRLPRPRPRPYIEPRP,-1.14
4,RRIRCRPPRLPRPRPRPMEMPRP,-0.193
5,RRIRGRPPRLPRPRPRPEDHPRP,0.536
6,RRIRHRPPRLPRPRPRPSMMPRP,-0.407
7,RRIRQRPPRLPRPRPRPFKHPRP,-0.244
8,RRIRTRPPRLPRPRPRPQTLPRP,-0.278
9,RRIRFRPPRLPRPRPRPDDLPRP,0.00489
10,RRIRPRPPRLPRPRPRPKFQPRP,0.103
11,RRIRKRPPRLPRPRPRPNNSPRP,-0.371
12,RRIRNRPPRLPRPRPRPNLPPRP,-0.0407
13,RRIRVRPPRLPRPRPRPWINPRP,-0.565
14,RRIRDRPPRLPRPRPRPGSKPRP,-0.126
15,RRIRDRPPRLPRPRPRPVENPRP,-0.127
16,RRIRGRPPRLPRPRPRPYITPRP,-0.302
17,RRIRLRPPRLPRPRPRPDENPRP,0.087
18,RRIRKRPPRLPRPRPRPSMEPRP,0.181
19,RRIRCRPPRLPRPRPRPILFPRP,-0.405
20,RRIRMRPPRLPRPRPRPIYAPRP,1.86
21,RRIRQRPPRLPRPRPRPNTSPRP,-0.292
22,RRIRARPPRLPRPRPRPATNPRP,0.317

row,Sequence,shrunken log2 fold change
1,RRIRDRPPRLPRPRPRPHPAPRP,0.145
2,RRIRHRPPRLPRPRPRPIVNPRP,0.114
3,RRIRPRPPRLPRPRPRPFPPPRP,-0.0227
4,RRIRDRPPRLPRPRPRPMRMPRP,0.199
5,RRIRDRPPRLPRPRPRPCSGPRP,-0.0282
6,RRIRHRPPRLPRPRPRPFQNPRP,-0.195
7,RRIRTRPPRLPRPRPRPKYDPRP,-0.434
8,RRIRERPPRLPRPRPRPFHLPRP,-0.173
9,RRIRHRPPRLPRPRPRPALHPRP,0.111
10,RRIRDRPPRLPRPRPRPTWSPRP,0.235
11,RRIRARPPRLPRPRPRPYVAPRP,-0.35
12,RRIRPRPPRLPRPRPRPHQIPRP,1.04
13,RRIRLRPPRLPRPRPRPYYHPRP,-0.712
14,RRIRIRPPRLPRPRPRPEFPPRP,-0.0115
15,RRIRQRPPRLPRPRPRPSSKPRP,-0.623
16,RRIRIRPPRLPRPRPRPMNFPRP,-0.0453
17,RRIRYRPPRLPRPRPRPKQRPRP,-0.106
18,RRIRHRPPRLPRPRPRPKSAPRP,-0.0502
19,RRIRKRPPRLPRPRPRPSQHPRP,0.109
20,RRIRERPPRLPRPRPRPSPSPRP,-0.269
21,RRIRKRPPRLPRPRPRPRMNPRP,0.115
22,RRIRTRPPRLPRPRPRPAMVPRP,-0.208

row,Sequence,shrunken log2 fold change
1,RRIRRRPPRLPRPRPRPECHPRP,0.171
2,RRIRWRPPRLPRPRPRPPHEPRP,0.0628
3,RRIRMRPPRLPRPRPRPIHSPRP,-0.01
4,RRIRKRPPRLPRPRPRPKRMPRP,0.296
5,RRIRLRPPRLPRPRPRPLFGPRP,-0.0652
6,RRIRCRPPRLPRPRPRPQHDPRP,-0.219
7,RRIRCRPPRLPRPRPRPGRVPRP,0.288
8,RRIRKRPPRLPRPRPRPQLIPRP,0.0871
9,RRIRQRPPRLPRPRPRPKCPPRP,-0.0714
10,RRIRTRPPRLPRPRPRPMSRPRP,-0.361
11,RRIRIRPPRLPRPRPRPITNPRP,-0.176
12,RRIRRRPPRLPRPRPRPYSPPRP,0.00204
13,RRIRQRPPRLPRPRPRPPYHPRP,-0.208
14,RRIRYRPPRLPRPRPRPLIGPRP,-0.478
15,RRIRQRPPRLPRPRPRPLEYPRP,-0.082
16,RRIRIRPPRLPRPRPRPRKHPRP,-0.252
17,RRIRVRPPRLPRPRPRPDCEPRP,-0.0964
18,RRIRLRPPRLPRPRPRPSWMPRP,-0.167
19,RRIRLRPPRLPRPRPRPNKTPRP,0.0829
20,RRIRKRPPRLPRPRPRPIIFPRP,-0.147
21,RRIRPRPPRLPRPRPRPSRYPRP,-0.163
22,RRIRWRPPRLPRPRPRPWTKPRP,-0.0653

row,Sequence,shrunken log2 fold change
1,RRIRTRPPRLPRPRPRPPSLPRP,-0.11
2,RRIRRRPPRLPRPRPRPSCEPRP,0.13
3,RRIRNRPPRLPRPRPRPFRSPRP,0.033
4,RRIRSRPPRLPRPRPRPIIIPRP,-0.159
5,RRIRQRPPRLPRPRPRPTHGPRP,0.0759
6,RRIRRRPPRLPRPRPRPICIPRP,0.232
7,RRIRTRPPRLPRPRPRPNIAPRP,-0.239
8,RRIRPRPPRLPRPRPRPYHVPRP,-0.199
9,RRIRLRPPRLPRPRPRPMVDPRP,-0.00377
10,RRIRYRPPRLPRPRPRPFVQPRP,-0.0236
11,RRIRDRPPRLPRPRPRPFATPRP,0.271
12,RRIRTRPPRLPRPRPRPMYIPRP,-1.2
13,RRIRHRPPRLPRPRPRPFTRPRP,-0.132
14,RRIRFRPPRLPRPRPRPYAIPRP,-0.536
15,RRIRRRPPRLPRPRPRPINLPRP,-0.00491
16,RRIRLRPPRLPRPRPRPTYFPRP,-0.451
17,RRIRYRPPRLPRPRPRPRLRPRP,0.0744
18,RRIRARPPRLPRPRPRPCKHPRP,-0.116
19,RRIRTRPPRLPRPRPRPLQKPRP,-0.134
20,RRIRARPPRLPRPRPRPLDLPRP,0.227
21,RRIRGRPPRLPRPRPRPHGLPRP,0.211
22,RRIRDRPPRLPRPRPRPEWKPRP,-0.0135

row,Sequence,shrunken log2 fold change
1,RRIRCRPPRLPRPRPRPSQPPRP,0.075
2,RRIRVRPPRLPRPRPRPALCPRP,0.555
3,RRIRNRPPRLPRPRPRPRIDPRP,-0.0916
4,RRIRARPPRLPRPRPRPCTHPRP,-0.182
5,RRIRTRPPRLPRPRPRPMEHPRP,0.118
6,RRIRRRPPRLPRPRPRPGKYPRP,-0.307
7,RRIRHRPPRLPRPRPRPYYLPRP,-0.72
8,RRIRLRPPRLPRPRPRPDTTPRP,-0.138
9,RRIRQRPPRLPRPRPRPCLQPRP,-0.112
10,RRIRSRPPRLPRPRPRPNWIPRP,-0.659
11,RRIRERPPRLPRPRPRPPTSPRP,0.0163
12,RRIRHRPPRLPRPRPRPNYPPRP,-0.32
13,RRIRYRPPRLPRPRPRPWWYPRP,-0.139
14,RRIRLRPPRLPRPRPRPVWNPRP,0.2
15,RRIRRRPPRLPRPRPRPILIPRP,0.118
16,RRIRTRPPRLPRPRPRPQEYPRP,-0.0331
17,RRIRNRPPRLPRPRPRPDSNPRP,-0.0886
18,RRIRPRPPRLPRPRPRPKMPPRP,-0.0926
19,RRIRQRPPRLPRPRPRPNEVPRP,-0.00511
20,RRIRWRPPRLPRPRPRPDPEPRP,0.159
21,RRIRNRPPRLPRPRPRPQKTPRP,-0.0033

# Source: the supplement of paper PMC9112550, “Optimization of the antimicrobial peptide Bac7 by deep mutational scanning” (BMC Biology, 2022)
